Experimental data: EP3505186B1, “NUCLEOPHILIC CATALYSTS FOR OXIME LINKAGE” (Takeda Pharmaceutical Company Limited, priority 2010, dated 2012)

Columns and labels:
[1] = Specific activity of the EPO conjugate: biological activity by methods known in the art and total protein (Bradford)
FIX chromogenic activity = test: Specific activity of the rFIX conjugate: FIX chromogenic (and clotting) activity and total protein; type: biochemical
Method: The free rFIX was removed by means of anion exchange chromatography (AEC). The reaction mixture was diluted with 15 ml Buffer A (50 mM Hepes, 5 mM CaCl2, pH 7.5) and loaded onto a 20 ml HiPrep QFF 16/10 column (GE Healthcare, Fairfield, CT) pre-equilibrated with Buffer A. The column was then eluted with Buffer B (50 mM Hepes, 1 M NaCl, 5 mM CaCl2, pH 7.5). Free rFIX elutes at a conductivity between 12-25 mS/cm and the conjugate between 27-45 mS/cm. The conductivity of the conjugate containing fractions was subsequently raised to 190 mS/cm with Buffer C (50 mM Hepes, 5M NaCl, 5 mM CaCl2, pH 6.9) and loaded onto a 20 ml HiPrep Butyl FF 16/10 column (GE Healthcare, Fairfield, CT) pre-equilibrated with Buffer D (50 mM Hepes, 3 M NaCl, 5 mM CaCl2, pH 6.9). Free aminooxy-PSA reagent was washed out within 5 CV Buffer D. Subsequently the conjugate is eluted with 100 % Buffer E (50 mM Hepes, 5 mM CaCl2, pH 7.4). The conjugate containing fractions were concentrated by UF/DF using Vivaspin 15R 10 kD centrifugal filtrator. The final diafiltration step was performed against histidine buffer, pH 7.2 containing 150 mM NaCl and 5 mM CaCl2. The preparation was analytically characterized by measuring total protein (Bradford) and FIX chromogenic activity.
The free rFIX is removed by means of anion exchange chromatography (AEC). The reaction mixture is diluted with appropriate amounts of Buffer A (50 mM Hepes, 5 mM CaCl2, pH 7.5) to correct the solutions conductivity and pH prior to load onto a 20 ml HiPrep QFF 16/10 column (GE Healthcare, Fairfield, CT) pre-equilibrated with buffer A. Then the column is eluted with Buffer B (50 mM Hepes, 1 M NaCl, 5 mM CaCl2, pH 7.5). Free rFIX is eluted by a step gradient using 25 % of Buffer B, which results in a conductivity between 12-25 mS/cm in the obtained fraction and the conjugate using a step gradient of 50 % Buffer B, which results in a conductivity between between 27-45 mS/cm in the conjugate fraction. […] Free aminooxy-PSA reagent is washed out within 5 CV Buffer D. Subsequently, the conjugate is eluted with 100 % Buffer E (50 mM Hepes, 5 mM CaCl2, pH 7.4). The conjugate containing fractions are concentrated by UF/DF using a 10 kD membrane made of regenerated cellulose (88 cm2, cut-off 10 kD, Millipore). The final diafiltration step is performed against L-histidine buffer, pH 7.2 containing 150 mM NaCl and 5 mM CaCl2. The preparation is analytically characterized by measuring total protein (Bradford and BCA procedure) and FIX chromogenic- and clotting activity. For the PSA-rFIX conjugate a specific activity of > 50 % in comparison to native rFIX is determined.
The free rFIX was removed by means of anion exchange chromatography (AEC). […]

[2] = Specific activity of the interferon-gamma conjugate: biological activity by methods known in the art and total protein (Bradford)
Method: (§1) The free Interferon-gamma is removed by means of cation exchange chromatography (CEC). The reaction mixture is diluted with 20 ml Buffer A (50 mM Hepes, pH 6.5) and loaded onto a 20 ml HiPrep SPFF 16/10 column (GE Healthcare, Fairfield, CT) pre-equilibrated with Buffer A. Then the column is eluted with Buffer B (50 mM Hepes, 1 M NaCl, pH 6.5). Free interferon-gamma is eluted by washing the column with 25 % Buffer B and the conjugate at 50 % Buffer B. The conductivity of the conjugate containing fractions is subsequently raised to -190 mS/cm with Buffer C (50 mM Hepes, 5 M NaCl, pH 6.9) and loaded onto a 20 ml HiPrep Butyl FF 16/10 column (GE Healthcare, Fairfield, CT) pre-equilibrated with Buffer D (50 mM Hepes, 3 M NaCl, pH 6.9). Free PSA-reagent is washed out within 5 CV Buffer D. Subsequently, the conjugate is eluted with 100 % Buffer E (50 mM Hepes, pH 6.9). The conjugate containing fractions are concentrated by UF/DF using a 10 kD membrane made of regenerated cellulose (88 cm2, cut-off 10 kD, Millipore). The final diafiltration step is performed against histidine buffer, pH 6.9 containing 150 mM NaCl. The preparation is analytically characterized by measuring total protein (Bradford) and biological activity according to methods known in the art. For the PSA-Interferon-gamma conjugate a specific activity of > 50 % in comparison to native Interferon-gamma is determined. The conjugate is additionally analytically characterized by Size Exclusion HPLC using a Agilent 1200 HPLC system equipped with a Shodex KW 803 column under conditions as previously described (Kolarich et al, Transfusion 2006;46:1959-77). It is shown that the preparation contains no free Interferon gamma.
as §1, with “free interferon gamma” for “free Interferon-gamma”, “10 kD /” for “10 kD,”, “the PSAinterferon-gamma” for “the PSA-Interferon-gamma”, “native interferon-gamma” for “native Interferon-gamma”, “free interferon-gamma.” for “free Interferon gamma.”
The free interferon gamma is removed by means of cation exchange chromatography (CEC). […]

PEG-EPO conjugate: EPO PEGylated with a linear 20 kD PEGylation reagent containing an aminooxy group, m-toluidine as catalyst
specific activity in comparison to native EPO ([1]; Reference Example 32 Method 1, alternative (oxidation, then m-toluidine and 20 kD aminooxy-PEG, 5-fold)): > 50%
specific activity in comparison to native EPO ([1]; Reference Example 32 Method 3, alternative (simultaneous, 20 kD aminooxy-PEG, 5-fold)): > 50%

PSA-EPO conjugate: erythropoietin polysialylated with 20 kD aminooxy-PSA reagent, m-toluidine as catalyst
specific activity in comparison to native EPO ([1]; Reference Example 18 Method 1, alternative procedure (oxidation, then m-toluidine and 20 kD aminooxy-PSA, 5-fold)): > 50%
specific activity in comparison to native EPO ([1]; Reference Example 18 Method 3, alternative procedure (simultaneous, 20 kD aminooxy-PSA, 5-fold)): > 50%

PSA-rFIX conjugate: rFIX polysialylated via oxidized carbohydrate with 20 kD aminooxy-PSA reagent, m-toluidine as catalyst
specific activity in comparison to native rFIX (FIX chromogenic activity; Reference Example 11 Method 1 (oxidation, UF/DF, then m-toluidine and 20 kD aminooxy-PSA), FIX chromogenic activity, Bradford): > 50%
specific activity in comparison to native rFIX (FIX chromogenic activity; Reference Example 11 Method 2 (oxidation, UF/DF, then 10 mM m-toluidine and 20 kD aminooxy-PSA), FIX chromogenic- and clotting activity, Bradford and BCA): > 50%
specific activity in comparison to native rFIX (FIX chromogenic activity; Reference Example 11 Method 3 (simultaneous periodate, m-toluidine, 20 kD aminooxy-PSA), FIX chromogenic activity, Bradford): > 50%
specific activity in comparison to native rFIX (FIX chromogenic activity; Reference Example 11 Method 4 (simultaneous, 2 mg rFIX / ml), FIX chromogenic- and clotting activity, Bradford and BCA): > 50%

B1: PSA-Interferon-gamma conjugate: interferon-gamma polysialylated with 20 kD aminooxy-PSA reagent, m-toluidine as catalyst (conjugate, UniProt P01579 24-161, looked up)
Interferon gamma: QDPYVKEAENLKKYFNAGHSDVADNGTLFLGILKNWKEESDRKIMQSQIVSFYFKLFKNFKDDQSIQKSVETIKEDMNVKFFNSNKKKRDDFEKLTNYSVTDLNVQRKAIHELIQVMAELSPAAKTGKRKRSQMLFRG
modifications: polysialic acid 20 kD
notes: interferon-gamma polysialylated with 20 kD aminooxy-PSA reagent, m-toluidine as catalyst
specific activity in comparison to native interferon-gamma ([2]; Reference Example 27 Method 1 (oxidation, then m-toluidine and 20 kD aminooxy-PSA, 5-fold)): > 50%
specific activity in comparison to native interferon-gamma ([2]; Reference Example 27 Method 2 (simultaneous, 20 kD aminooxy-PSA, 5-fold)): > 50%
specific activity in comparison to native interferon-gamma ([2]; Reference Example 27 Method 3 (simultaneous, 20 kD aminooxy-PSA, 5-fold)): > 50%

B2: PEG-interferon-gamma conjugate: interferon-gamma PEGylated with a linear 20 kD aminooxy PEGylation reagent, m-toluidine as catalyst (conjugate, UniProt P01579 24-161, looked up)
Interferon gamma: B1 Interferon gamma
modifications: PEG 20 kD
notes: interferon-gamma PEGylated with a linear 20 kD aminooxy PEGylation reagent, m-toluidine as catalyst
specific activity in comparison to native Interferon gamma ([2]; Reference Example 41 Method 1 (oxidation, then m-toluidine and 20 kD aminooxy-PEG, 5-fold)): > 50%
specific activity in comparison to native interferon-gamma ([2]; Reference Example 41 Method 3 (simultaneous, 20 kD aminooxy-PEG, 5-fold)): > 50%
